Measurements published in patent US8709811B2, “Materials and methods for synthesis of a flavor and aroma volatile in plants” (University of Florida Research Foundation, Inc., priority 2003, dated 2014).
“Also recorded” adds a separate entry of the source.

B1: cLEC73K23: tomato phenylalanine decarboxylase cLEC73K23, SEQ ID NO: 7, encoded by SEQ ID NO: 6 (protein, listed as Lycopersicon esculentum)
chain: MGSLSLEMDFEPSPMTPRSLAAMTPRSLARRRLFPNVDNKKQKMAQPGAGPRKNLELEVMEPALKNDGPSLDTILVNYLDTLTQRVNYHLGYPVNICYDHYATLAPLLQFHLNNCGDPFLQNTVDFHSKDFEVAVLNWFAKLWEIEKDQYWGYVTNGGTEGNLHGILLGRELLPEGILYASKDSHYSVFKAARMYRMDSETINTSVNGEMDYSDLRAKLLQNKDKPAIINVTIGTTFKGAIDDLDVILEILKECGYSQDRFYIHCDAALCGLMTPFINNMISFKKPIGSVTISGHKFLGCPMPCGVQITRKSYINNLSTNVEYIASVDATISGSRNGLTPIFLWYSLSAKGQVGLQKDVKRCLDNAKYLKDRLQQAGISVMLNELSIIVVLERPRDHEFVRRWQLSCVKDMAHVIVMPGITREMLDNFMSELVQQRKVWYQNGKTDPPCVGEDIGAQNCACSYHKIDYICP
B2: petunia homolog of the tomato phenylethanol dehydrogenase: petunia 2-phenylethanol dehydrogenase, SEQ ID NO: 11, encoded by SEQ ID NO: 10 (protein, listed as Lycopersicon esculentum)
chain: MSSVAATKTVCVTGASGYIASWLVNFLLQRGYTVKASVRDPNDPKKTQHLISLGGAKERLHLFKANLLEEGSFDAVVDGCEGVFHTASPFYYSVTDPQAELLDPAVKGTLNLLGSCAKAPSVKRVVLTSSIAAVAYSGEPRTPEVVVDESWWTSPDYCREKQLWYVLSKTLAEDAAWKFVKEKGIDMVAINPAMVIGPLLQPTLNTSSAAVLNLVNGAETYPNATFGWVNVKDVANAHILAFENPSANGRYLMVERVAHYSDILKILRELYPTMRLPEKCADDNPLMQNYQVSKERAKSLGVEFTPLEESIKETVESLKEKKFFGGSSAM
B3: cLEC75E21: tomato phenylalanine decarboxylase cLEC75E21, SEQ ID NO: 5, encoded by SEQ ID NO: 4 (protein, listed as Lycopersicon esculentum)
chain: MGSLSFEKDFEPSAITPRGLAPPGLIVNGDFGEMMRLKVSSTPTTPRKNLNLSVTEPGKNDGPSLDCTLMNYIDTLTQRINYHIGYPVNICYEHYANLAPLLQFHLNNCGDPFLQNTVDFHSKDFEVAVLNWFADLWEIERDQYWGYVTNGGTEGNLHGILVGRELFPDGILYASKDSHYSVAKAAMMYRMDFENINASINGEIDYSDLKVKLLQNKGKPAIINVTIGTTFKGAVDDLDVILQILEECGYTRDQFYIHCDAALNGLIIPFIKNMITFKKPIGSVTISGHKFLGCPMPCGVQITRKSYINNLSRRVEYIASVDATISGSRNGLTPIFLWYSISAKGQIGFQKDVKRCFDNAKYLKDRLQQAGISVMLNELSIIVVLERPRDHEFVRRWQLSCVRDMAHVIVMPGITRETLDGFINDLLQQRKKWYQDGRISPPCVANDIGAQNCACSYHKIDYIIA

Tests used:
[1] = tested on: phenylalanine; test: Phenylalanine decarboxylase expression in E. coli: phenethylamine production in media containing phenylalanine, GC; assay type: cell-based; details: grown in the presence of phenylalanine, confirmed by GC-MS
Excerpt: The full-length aromatic amino acid decarboxylase cDNAs were cloned by sequencing putative clones from the TIGR database. Following sequence analysis the full-length coding sequence was obtained by PCR, and cloned into vector pENTR/D-TOPO. The coding region was then cloned into vector pDEST15 containing a GST tag (Invitrogen) by recombination, and transformed into E. coli strain […] (Invitrogen) for inducible protein expression. Production of the recombinant protein was confirmed by protein blotting with anti-GST antibodies. Enzyme activity was determined by growing E. coli strains expressing the aromatic amino acid decarboxylases in media containing 19.4 mM phenylalanine. Volatile compounds were extracted from the cultures using an equal volume of hexanes. Extracts were concentrated and analyzed by gas chromatography on an Agilent DB-5 column on an Agilent 6890N gas chromatograph. Identification of phenethylamine was confirmed by GC-mass spectrometry as described by Schmelz et al. (2001).
The coding regions of the full-length aromatic amino acid decarboxylases were cloned in vector pDEST15 with a GST tag and transformed into E. coli BL21-SI cells for inducible expression. The production of recombinant proteins in E. coli was confirmed by Western blotting with an anti-GST antibody. […] Volatile compounds were extracted from these cultures and analyzed by gas chromatography. […]

[2] = In vitro phenylethanol dehydrogenase activity of E. coli expressed petunia homolog; assay type: biochemical; details: E. coli expressed protein
Excerpt: FIGS. 14A-14B show the nucleotide (SEQ ID NO: 10) and amino acid sequence (SEQ ID NO: 11) of a petunia homolog of the tomato phenylethanol dehydrogenase.

| Molecule | Production of phenethylamine by E. coli cultures expressing the decarboxylase [1] | Phenylethanol dehydrogenase activity in vitro [2] |
| --- | --- | --- |
| B1 | produced a compound with the same retention time as phenethylamine; also recorded: produce phenethylamine |  |
| B2 |  | exhibits phenylethanol dehydrogenase activity |
| B3 | produced a compound with the same retention time as phenethylamine; also recorded: produce phenethylamine |  |
